“Also recorded” adds a separate entry of the source.
B1: CRLF1: isolated and purified molecular product of the gene CRLF1 (protein, UniProt O75462 38-422, looked up)
Cytokine receptor-like factor …: AHTAVISPQDPTLLIGSSLLATCSVHGDPPGATAEGLYWTLNGRRLPPELSRVLNASTLALALANLNGSRQRSGDNLVCHARDGSILAGSCLYVGLPPEKPVNISCWSKNMKDLTCRWTPGAHGETFLHTNYSLKYKLRWYGQDNTCEEYHTVGPHSCHIPKDLALFTPYEIWVEATNRLGSARSDVLTLDILDVVTTDPPPDVHVSRVGGLEDQLSVRWVSPPALKDFLFQAKYQIRYRVEDSVDWKVVDDVSNQTSCRLAGLKPGTVYFVQVRCNPFGIYGSKKAGIWSEWSHPTAASTPRSERPGPGGGACEPRGGEPSSGPVRRELKQFLGWLKKHAYCSNLSFRLYDQWRAWMQKSHKTRNQDEGILPSGRRGTARGPAR
B2: UDP-N-acetyl-α-D-galactosamine:polypeptide N-acetylgalactosaminyltransferase 1 (protein, UniProt Q10472 1-559, looked up)
Polypeptide …: MRKFAYCKVVLATSLIWVLLDMFLLLYFSECNKCDEKKERGLPAGDVLEPVQKPHEGPGEMGKPVVIPKEDQEKMKEMFKINQFNLMASEMIALNRSLPDVRLEGCKTKVYPDNLPTTSVVIVFHNEAWSTLLRTVHSVINRSPRHMIEEIVLVDDASERDFLKRPLESYVKKLKVPVHVIRMEQRSGLIRARLKGAAVSKGQVITFLDAHCECTVGWLEPLLARIKHDRRTVVCPIIDVISDDTFEYMAGSDMTYGGFNWKLNFRWYPVPQREMDRRKGDRTLPVRTPTMAGGLFSIDRDYFQEIGTYDAGMDIWGGENLEISFRIWQCGGTLEIVTCSHVGHVFRKATPYTFPGGTGQIINKNNRRLAEVWMDEFKNFFYIISPGVTKVDYGDISSRVGLRHKLQCKPFSWYLENIYPDSQIPRHYFSLGEIRNVETNQCLDNMARKENEKVGIFNCHGMGGNQVFSYTANKEIRTDDLCLDVSKLNGPVTMLKCHHLKGNQLWEYDPVKLTLQHVNSNQCLDKATEEDSQVPSIRDCNGSRSQQWLLRNVTLPEIF
notes: recombinant protein product of the GALNT1 gene, secreted factor of marrow stromal cells
B3: TFPI2: isolated and purified molecular product of the gene TFPI2 (protein, UniProt P48307 23-235, looked up)
Tissue factor pathway …: DAAQEPTGNNAEICLLPLDYGPCRALLLRYYYDRYTQSCRQFLYGGCEGNANNFYTWEACDDACWRIEKVPKVCRLQVSVDDQCEGSTEKYFFNLSSMTCEKFFSGGCHRNRIENRFPDEATCMGFCAPKKIPSFCYSPKDEGLCSANVTRYYFNPRYRTCDAFTYTGCGGNDNNFVSREDCKRACAKALKKKKKMPKLRFASRIRKIRKKQF
B4: LGALS3BP: Soluble galectin 3 binding protein, highly glycosylated secreted protein; recombinant form tested (protein, UniProt Q08380 19-585, looked up)
Galectin-3-binding protein: VNDGDMRLADGGATNQGRVEIFYRGQWGTVCDNLWDLTDASVVCRALGFENATQALGRAAFGQGSGPIMLDEVQCTGTEASLADCKSLGWLKSNCRHERDAGVVCTNETRSTHTLDLSRELSEALGQIFDSQRGCDLSISVNVQGEDALGFCGHTVILTANLEAQALWKEPGSNVTMSVDAECVPMVRDLLRYFYSRRIDITLSSVKCFHKLASAYGARQLQGYCASLFAILLPQDPSFQMPLDLYAYAVATGDALLEKLCLQFLAWNFEALTQAEAWPSVPTDLLQLLLPRSDLAVPSELALLKAVDTWSWGERASHEEVEGLVEKIRFPMMLPEELFELQFNLSLYWSHEALFQKKTLQALEFHTVPFQLLARYKGLNLTEDTYKPRIYTSPTWSAFVTDSSWSARKSQLVYQSRRGPLVKYSSDYFQAPSDYRYYPYQSFQTPQHPSFLFQDKRVSWSLVYLPTIQSCWNYGFSCSSDELPVLGLTKSGGSDRTIAYENKALMLCEGLFVADVTDFEGWKAAIPSALDTNSSKSTSSFPCPAGHFNGFRTVIRPFYLTNSSGVD

What was measured:
[1] = tested on: human leukocytes in culture; assay: Cytokine production (IL-10 or IFN-γ) in human leukocytes in culture; format: cell-based; settings: concentrations within five orders of magnitude of 10 μg/mL
Description: Leukocytes were prepared from fresh whole human blood, collected and spun in the presence of Ficoll for 30 minutes at 1500×g. The mononuclear cell layer was transferred to a new tube where it was washed once with RPMI 1640. The mononuclear cells were plated at a density of 1×10^5 per well of a 96-well plate in 50 μL of RPMI 1640 per well. MSC-CM was then immediately added to each well and allowed to incubate in the presence of the mononuclear cells for 16 hours. After incubation, 50 μL of RPMI 1640 containing 10 μg/mL of LPS was added to each well and allowed to incubate for an additional 5 hours. The resultant supernatants were collected and analyzed via ELISA for human interleukin-10 (IL-10). This procedure of incubating leukocytes with MSC-CM to determine IL-10 stimulating activity will be henceforth referred to as the “IL-10 assay”.
Preparations and use of MSC-CM, Fb-CM, LPS-stimulated MSC-CM, leukocytes were as described in Examples 1-3 and the Figures. These conditioned media preparations were added to leukocyte cultures for 16 hours, after which the culture was stimulated with LPS at 10 μg/ml. The medium from this culture was collected 24 hours after LPS stimulation of leukocytes and analyzed using an IFN-γ ELISA.

[2] = tested on: colitic mice (TNBS colitis); assay: TNBS colitis in mice, colon histopathology; format: in vivo; settings: 3 μg protein twice over 24 h; sacrifice at day 2; compared to vehicle (saline)
Description: FIG. 6: Administered MFAP5 and LGALS3BP protect mice from developing TNBS colitis. Mice were presensitized via the skin with 1% TNBS one week prior to intra-rectal administration of 3 mg of TNBS per mouse in a mixture of 50% EtOH and 50% sterile water to induce colitis. Mice were treated with 3 μg each of MFAP5, LGALS3BP and GALNT1 twice over a 24 hour period, once in conjunction with the TNBS administration and once 24 hours later. Mice were then sacrificed at day 2 and tissue collected for analysis. As expected, mice treated with vehicle (saline) developed extensive inflammation of the colon with loss of crypts and frank necrosis of the intestinal epithelium.
MFAP5, LGALS3BP and PENK all protected the colonic epithelium from the hallmark features of TNBS colitis: necrosis, inflammatory infiltrate and loss of crypts. Especially at the microscopic level, the tissue of the MFAP5, LGALS3BP and PENK treated animals looked mostly normal with minor foci of inflammation and edema.

[3] = tested on: BALB/cJ mice challenged with a sub-lethal dose of LPS; assay: In vivo LPS assay, sub-lethal LPS model: serum cytokines and lung histology; settings: for serum IL-10 levels / serum TNF-α: 3 μg protein or 1 mL 1×BMSC-CM IP, twice, 100 μg LPS, 48 h later, compared to saline
Description: FIG. 8: In vivo hit screen and survival study. (a) Schematic of the in vivo LPS assay. Proteins were administered intraperitoneal (IP) at the concentration that elicited the strongest effect in vitro, followed by IP administration of LPS in conjunction with a second dose of the proteins 16 hours later. Two days after the combined LPS and second protein dose, the mice were sacrificed and assessed for changes in serum cytokines and tissue histology. (b) Serum IL-10 levels of BALB/cJ mice subjected to the in vivo LPS assay. * p<0.001 compared to saline. (c) Serum TNF-α levels of BALB/cJ mice subjected to the in vivo LPS assay. * p<0.001 compared to saline, ** p<0.05 compared to BMSC-CM. (d) Representative micrographs of lung tissue from mice subjected to the in vivo LPS assay stained with hematoxylin and eosin. (e) Survival of mice subjected to a lethal dose of LPS i.p. (350 μg) concurrently with i.p. saline vehicle (bold dark blue line), 5 μg Anti-TNF-α antibody (thin dark blue line), 4 μg PENK (bold light blue line) or 4 μg MFAP5 (thin light blue line). Scale bar=200 μm.
All procedures were performed in accordance with the animal rights policies of the Massachusetts General Hospital Subcommittee on Research Animal Care. For the sub-lethal LPS model, eight week old female BALB/cJ mice (n≧3) (Jackson Laboratories, Bar Harbor, Me.) were administered an initial dose of either vehicle or one of the experimental therapies IP: 200 μL of saline (vehicle), or 3 μg of protein (e.g., GALNT1, LGALS3BP, MFAP5 or PENK) diluted in 200 μL of saline, or 1 mL of 1×BMSC-CM. 16 hours later, mice received a second dose of either vehicle or therapy in conjunction with a dose of 100 μg of LPS (E. coli 0111:B4; Sigma, St. Louis, Mo.) diluted in physiological saline. 48 hours later, mice were sacrificed and tissue and blood were collected for analysis. Serum was tested for the presence of IL-10 and TNF-α via ELISA and lungs, livers and kidneys of the animals were preserved for hematoxylin and eosin staining. For the lethal LPS model, eight week old female BALB/cJ mice (n≧5) were co-administered a lethal dose of LPS (350 μg LPS in 100 μL physiological saline) and either vehicle (negative control), 5 μg anti-TNF-α (positive control; R&D Systems, Minneapolis, Minn.), 4 μg MFAP5 diluted in 100 μL of physiological saline, or 4 μg of PENK diluted in 100 μL of physiological saline. Mice were monitored for survival for seven days (168 hours).

[4] = tested on: human peripheral blood mononuclear cells (PBMCs); assay: PBMC potency assay (IL-10 assay): IL-10 secretion by LPS-stimulated PBMCs, ELISA; format: cell-based; settings: recombinant molecules diluted in RPMI 1640
Excerpt: FIG. 1: MSC conditioned medium causes peripheral blood mononuclear cells to secrete IL-10 in response to LPS, providing the basis for differential gene expression analysis to identify genes responsible for the increased activity. (a) Generalized schematic of EPS methodology. Protein products are derived from various cell types in the form of conditioned media and screened for activity in an in vitro potency assay. […] Recombinant protein products of the enriched gene list are then screened in a potency assay and the candidates with the highest activity are assessed for activity in vivo. (b) In vitro potency assay. This assay entails incubating primary human peripheral blood mononuclear cells (PBMCs) in the presence of protein products (e.g., conditioned medium from a cell) for 16 hours, followed by stimulation of the PBMCs with LPS for five hours, and measurement of IL-10 secretion into the supernatant via ELISA. (c) Time course of IL-10 expression from PBMCs when incubated with either bone marrow stromal cell conditioned medium (BMSC-CM) or unconditioned medium (DMEM) in the potency assay. (d) Comparison of potency assay activity of conditioned medium from normal human dermal fibroblasts (FB-CM), BMSCs (BMSC-CM) and BMSCs preincubated with LPS prior to conditioning (BMSCLPS-CM). * p<0.001 compared to FB-CM, ** p<0.001 compared to BMSC-CM. (e) Schematic of the differential gene expression comparison strategy to select for genes uniquely expressed at high levels in LPS stimulated MSCs (MSCLPS) compared to MSCs and fibroblasts (FBs). Analysis was then conducted on the genes identified to select for genes that were most likely to be responsible for secreted proteins. MSCLPS, LPS stimulated MSC; FB, fibroblast. […]
Leukocytes were prepared from fresh whole human blood, collected and spun in the presence of Ficoll for 30 minutes at 1500×g. […] The resultant supernatants were collected and analyzed via ELISA for human interleukin-10 (IL-10). […]

Molecule	promote IL-10 production or suppress IFN-γ production [1]	protection from TNBS colitis (colon histopathology) [2]	serum IL-10 levels [3]	serum TNF-α [3]	lung histology (lung protection) ([3]; hematoxylin and eosin, sub-lethal LPS model, compared to vehicle)	increase of IL-10 production compared to 10×MSC-CM [4]
B1	either promote IL-10 production or suppress IFN-γ production	–	–	–	–	–
B2	either promote IL-10 production or suppress IFN-γ production	not protected from development of colitis	Significantly elevated	not	moderate protection	superior to that induced by 10×MSC-CM
B3	either promote IL-10 production or suppress IFN-γ production	–	–	–	–	–
B4	either promote IL-10 production or suppress IFN-γ production	protect the mice from developing acute colitis; also recorded: significant attenuation of colitis; also recorded: protected from developing extensive colonic inflammation	no IL-10 response	significantly suppressed	–	superior to that induced by 10×MSC-CM

From patent US20130052198A1, “ANTI-INFLAMMATORY FACTORS” (THE GENERAL HOSPITAL CORPORATION, priority 2010, published 2013)
